Consider 7 molecules from US20220088075A1 (University of Pennsylvania, published 2022).

The target of experiment [1] is T1, wild type hEGFR (human EGFR wild type) on transiently transfected HEK293F cells (human, UniProt P00533 25-1210).
T1 construct: whole, on cells; also called wild type EGFR
Description: FACS, purified His-tagged scFv on HEK293F cells transiently transfected with wild type hEGFR, anti-poly His PE. On the procedure:
(§1) HEK293F suspension cells were transiently transfected with either wild type hEGFR or hEGFRvIII and were harvested 2 days after transfection. Approximately 5e5 cells/per well were transferred to a BD Falcon 96 well plate. The cells were spun down at 900 rpm (Sorval Legend XT centrifuge) for 3 minutes. The supernatant was removed. Anti-EGFRvIII scFv protein samples were diluted in DPBS with 5% FBS. The samples were added into the wells, mixed and incubated for 1 hour. The cells were washed twice in the DPBS with 5% FBS. The cells were incubated with anti-poly His PE (R&D) for 1 hour, washed twice before FACS analysis (LSRII from BD Biosciences).

Experiment [2] deals with T2, hEGFRvIII (human epidermal growth factor receptor variant III) on transiently transfected HEK293F cells (human, UniProt P00533 25-1210).
T2 construct: whole, on cells; also called human EGFRvIII
Description: FACS, purified His-tagged scFv on HEK293F cells transiently transfected with hEGFRvIII, anti-poly His PE. On the procedure:
as §1
For orientation: Flow cytometry measures light scatter and fluorescence of single cells or particles in a stream.

In experiment [3] the target is T3, EGFRvIII-Fc fusion protein (UniProt P00533 25-645, limits assumed).
T3 construct: not shown: detected with PE anti-human IgG Fc
Kind of experiment: flow cytometry, Jurkat E6 cells electroporated with CAR vector, titrated EGFRvIII-Fc, PE anti-human IgG Fc. As for the experimental part:
Jurkat E6 cells were electroporated with either CAR9 vector or CAR10 vector using Amaxa Cell Line Nucleofector Kit V (Lonza, Colgne AG, Germany) and program X-001. One day after the transfection, 0.5×10⁶ cells were placed into each well of a V-shape 96 well plate (Greiner Bio-One, Germany) in 0.2 ml FACS buffer (DPBS buffer containing 5% FBS) and incubated for 10 minutes at room temperature. Cells were then spun down and resuspended in 0.2 ml of the FACS buffer with different concentrations of EGFRvIII-Fc or EGFRwt-Fc and incubated at 4° C. for 30 minutes. Cells were then washed with FACS buffer three times, and incubated with 0.2 ml of the FACS buffer with 2 μl of PE anti-human IgG Fc (Jackson ImmunoResearch Laboratories, West Grove, Pa.) for 30 minutes at 4° C. in the dark. After washing with 0.2 ml of FACS buffer three times, cells were analyzed on a LSRII (BD Biosciences, San Jose, Calif.) machine using the FACSDiva software (BD Biosciences, San Jose, Calif.). Immunofluorescence staining was analyzed as the relative log fluorescence of live cells, and the percentage of the PE positive cells were measured.

B1: CAR1 soluble scFv (humanized anti-EGFRvIII scFv, VH1-VK4) (scFv)
scFv: EIQLVQSGAEVKKPGATVKISCKGSGFNIEDYYIHWVQQAPGKGLEWMGRIDPENDETKYGPIFQGRVTITADTSTNTVYMELSSLRSEDTAVYYCAFRGGVYWGQGTTVTVSSGGGGSGGGGSGGGGSGGGGSDVVMTQSPDSLAVSLGERATINCKSSQSLLDSDGKTYLNWLQQKPGQPPKRLISLVSKLDSGVPDRFSGSGSGTDFTLTISSLQAEDVAVYYCWQGTHFPGTFGGGTKVEIKGSHHHHHHHH
notes: not tied in words; also called CAR1 scFv
B1: the binding result in experiment [1] is given as “no binding”; in experiment [2] it was “binds”.

B2: CAR3 soluble scFv (humanized anti-EGFRvIII scFv, VH5-VK2) (scFv)
scFv: EIQLVQSGAEVKKPGESLRISCKGSGFNIEDYYIHWVRQMPGKGLEWMGRIDPENDETKYGPIFQGHVTISADTSINTVYLQWSSLKASDTAMYYCAFRGGVYWGQGTTVTVSSGGGGSGGGGSGGGGSGGGGSDVVMTQSPLSLPVTLGQPASISCKSSQSLLDSDGKTYLNWLQQRPGQSPRRLISLVSKLDSGVPDRFSGSGSGTDFTLKISRVEAEDVGVYYCWQGTHFPGTFGGGTKVEIKGSHHHHHHHH
notes: also called CAR3 scFv
Regarding B2, the binding result in experiment [1] is on record as “no binding”; in experiment [2], “binds”.

B3: CAR5 soluble scFv (humanized anti-EGFRvIII scFv, VH1-VK2) (scFv)
scFv: EIQLVQSGAEVKKPGATVKISCKGSGFNIEDYYIHWVQQAPGKGLEWMGRIDPENDETKYGPIFQGRVTITADTSTNTVYMELSSLRSEDTAVYYCAFRGGVYWGQGTTVTVSSGGGGSGGGGSGGGGSGGGGSDVVMTQSPLSLPVTLGQPASISCKSSQSLLDSDGKTYLNWLQQRPGQSPRRLISLVSKLDSGVPDRFSGSGSGTDFTLKISRVEAEDVGVYYCWQGTHFPGTFGGGTKVEIKGSHHHHHHHH
notes: also called CAR5 scFv
Regarding B3, the binding result in experiment [1] was “no binding”; in experiment [2], “binds”.

B4: CAR2 soluble scFv (humanized anti-EGFRvIII scFv, VK4-VH1) (scFv)
scFv: DVVMTQSPDSLAVSLGERATINCKSSQSLLDSDGKTYLNWLQQKPGQPPKRLISLVSKLDSGVPDRFSGSGSGTDFTLTISSLQAEDVAVYYCWQGTHFPGTFGGGTKVEIKGGGGSGGGGSGGGGSGGGGSEIQLVQSGAEVKKPGATVKISCKGSGFNIEDYYIHWVQQAPGKGLEWMGRIDPENDETKYGPIFQGRVTITADTSTNTVYMELSSLRSEDTAVYYCAFRGGVYWGQGTTVTVSSGSHHHHHHHH
notes: also called CAR2 scFv
For the molecule B4, the binding result in experiment [1] is recorded as “no binding”; in experiment [2], “binds”.

B5: CAR4 soluble scFv (humanized anti-EGFRvIII scFv, VK2-VH5) (scFv)
scFv: DVVMTQSPLSLPVTLGQPASISCKSSQSLLDSDGKTYLNWLQQRPGQSPRRLISLVSKLDSGVPDRFSGSGSGTDFTLKISRVEAEDVGVYYCWQGTHFPGTFGGGTKVEIKGGGGSGGGGSGGGGSGGGGSEIQLVQSGAEVKKPGESLRISCKGSGFNIEDYYIHWVRQMPGKGLEWMGRIDPENDETKYGPIFQGHVTISADTSINTVYLQWSSLKASDTAMYYCAFRGGVYWGQGTTVTVSSGSHHHHHHHH
notes: also called CAR4 scFv
As to B5, the binding result in experiment [1] is reported as “no binding”; in experiment [2], “binds”.

B6: CAR10 (chimeric antigen receptor with anti-EGFRvIII clone 139 scFv), expressed on Jurkat E6 cells or primary human T cells (other)
chain: DIQMTQSPSSLSASVGDRVTITCRASQGIRNNLAWYQQKPGKAPKRLIYAASNLQSGVPSRFTGSGSGTEFTLIVSSLQPEDFATYYCLQHHSYPLTSGGGTKVEIKRTGSTSGSGKPGSGEGSEVQVLESGGGLVQPGGSLRLSCAASGFTFSSYAMSWVRQAPGKGLEWVSAISGSGGSTNYADSVKGRFTISRDNSKNTLYLQMNSLRAEDTAVYYCAGSSGWSEYWGQGTLVTVSSTTTPAPRPPTPAPTIASQPLSLRPEACRPAAGGAVHTRGLDFACDIYIWAPLAGTCGVLLLSLVITLYCKRGRKKLLYIFKQPFMRPVQTTQEEDGCSCRFPEEEEGGCELRVKFSRSADAPAYKQGQNQLYNELNLGRREEYDVLDKRRGRDPEMGGKPRRKNPQEGLYNELQKDKMAEAYSEIGMKGERRRGKGHDGLYQGLSTATKDTYDALHMQALPPR
On to B6, for which, in experiment [3], the “fold lower binding compared to CAR9” value was roughly 40 fold.

B7: CAR8 soluble scFv (humanized anti-EGFRvIII scFv, VK2-VH1) (scFv)
scFv: DVVMTQSPLSLPVTLGQPASISCKSSQSLLDSDGKTYLNWLQQRPGQSPRRLISLVSKLDSGVPDRFSGSGSGTDFTLKISRVEAEDVGVYYCWQGTHFPGTFGGGTKVEIKGGGGSGGGGSGGGGSGGGGSEIQLVQSGAEVKKPGATVKISCKGSGFNIEDYYIHWVQQAPGKGLEWMGRIDPENDETKYGPIFQGRVTITADTSTNTVYMELSSLRSEDTAVYYCAFRGGVYWGQGTTVTVSSGSHHHHHHHH
notes: also called CAR8 scFv
Regarding B7, the binding result in experiment [1] is “no binding”; in experiment [2], “binds”.
